The results in this text go back to US20130097717A1, “COMPOSITIONS AND METHODS FOR RE-PROGRAMMING CELLS WITHOUT GENETIC MODIFICATION FOR TREATMENT OF CARDIOVASCULAR DISEASES” (VIVOSCRIPT, INC., priority 2010, published 2013).

One assay concerns PBMC/mono- (T cells). Kind of assay: Reprogramming of T cells to Treg cells, flow cytometry of CD4 and CD25 in PBMC lacking CD14 monocytes. Type of assay: cell-based, human. The following applies: 10, 20 or 50 μg/ml. As to the method: 100 ml of healthy human blood was collected from a donor and the peripheral blood mononuclear cells (PBMCs) were isolated by density-gradient centrifugation using Histopaque-1077 (Sigma-Aldrich, St Louis, Mo.). CD14+ monocytes were removed by magnetic bead selection (Miltenyi Biotec, Auburn, Calif.). Briefly, […] PBMCs were incubated with 200 μL anti-CD14 microbeads (Miltenyi Biotec) in ice for 30 minutes. The cells were washed with cold 1×PBS with 2% FCS and centrifuged at 300 g for 10 minutes and then resuspended in 1×PBS with 2% FCS. The cell suspension was applied to the magnetic column and unbinding cells were passed through by washing 3 times with 1×PBS with 2% FCS. The PBMC/mono- were harvested by centrifuged at 300 g for 10 minutes.
The PBMC/mono- were cultured in 6-well plates (Becton Dickinson, Gaithersburg, Md.) supplemented with 10% FBS, nonessential amino acids, 2 mM glutamine, 1 mM sodium pyruvate, 25 mM HEPES, 200 units/ml penicillin, and streptomycin at 37° C. and 5% CO2. After 1 hour of culture, His6-Foxp3-11R (10 μg/ml, 20 μg/ml, or 50 μg/ml) was added to the cells. BSA (100 μg/ml) was added to another well as control. Same concentration of His6-Foxp3-11R or BSA was added after cultured for two days. After 5 days of culture, the cells were washed with PBS twice. The cells were re-suspended in 100 μL diluted and added rabbit anti-human CD25 for 90 minutes. […]

The next assay deals with PBMC (T cells). In words: Reprogramming of T cells to Treg cells, flow cytometry of CD4 and CD25 in PBMC. Type of assay: cell-based, human. The following applies: 10, 50 or 100 μg/ml. As to the method: 100 ml of healthy human blood was collected from a donor and the peripheral blood mononuclear cells (PBMCs) were isolated by density-gradient centrifugation using Histopaque-1077 (Sigma-Aldrich, St Louis, Mo.). The PBMC/mono^− were cultured in […] plates (Becton Dickinson, Gaithersburg, Md.) supplemented with 10% FBS, nonessential amino acids, 2 mM glutamine, 1 mM sodium pyruvate, 25 mM HEPES, 200 units/ml penicillin, and streptomycin at 37° C. and 5% CO2. After 1 hour of culture, Foxp3 (10 μg/ml, 50 μg/ml, 100 μg/ml) were added to the cells. BSA (100 μg/ml) was added to another well as control. Same concentration of the Foxp3 or BSA was added after cultured two days. Following 5 days of culture, the cells were washed with PBS twice. The cells were re-suspended in 100 μL diluted and added rabbit anti-human CD25 for 90 minutes. The cells were washed three time with cold 1×PBS supplied 2% FBS and then the conjugated-PE mouse anti-human CD4 as well as conjugated-FITC goat anti-rabbit IgG were added to the cells for 60 minutes in ice. Conjugated-PE mouse IgG and rabbit IgG were incubated with another group cells as Isotype control. The cells were washed with PBS for flow cytometric analysis using a Beckman Coulter FC500 cytometer with Cytomics CXP software (Beckman Coulter, Fullerton, Calif.) (FIGS. 14-17).

Where [1] appears, read: added again after two days, 5 days of culture.

B1: His6-Foxp3-11R: His6-tagged Foxp3 fused to 11R, SEQ ID NO: 33 (protein)
chain: MGSSHHHHHHSSGLVPRGSHMPNPRPGKPSAPSLALGPSPGASPSWRAAPKASDLLGARGPGGTFQGRDLRGGAHASSSSLNPMPPSQLQLPTLPLVMVAPSGARLGPLPHLQALLQDRPHFMHQLSTVDAHARTPVLQVHPLESPAMISLTPPTTATGVFSLKARPGLPPGINVASLEWVSREPALLCTFPNPSAPRKDSTLSAVPQSSYPLLANGVCKWPGCEKVFEEPEDFLKHCQADHLLDEKGRAQCLLQREMVQSLEQQLVLEKEKLSAMQAHLAGKMALTKASSVASSDKGSCCIVAAGSQGPVVPAWSGPREAPDSLFAVRRHLWGSHGNSTFPEFLHNMDYFKFHNMRPPFTYATLIRWAILEAPEKQRTLNEIYHWFTRMFAFFRNHPATWKNAIRHNLSLHKCFVRVESEKGAVWTVDELEFRKKRSQRPSRCSNPTPGPESGGGGSPGRRRRRRRRRRR
modifications: transducible material
For B1, the “dose dependence of the increase of CD4+CD25+T cells” value in the assay on PBMC/mono- (T cells) and with PBMC (T cells) was “protein-dose dependent” in each case. The “CD4+CD25+T cells (Treg cells)” value with PBMC/mono- (T cells) (setting [1]) and in the assay with PBMC (T cells) (setting [1]) was “dramatically increased” in each case.
